The source of these data is US6323177, “Interaction of reelin with very low density lipoprotein (VLDL) receptor for screening and therapies” (St. Jude Children's Research Hospital, dated 2001).

The test deals with Reelin (full length, expressed from pCr1 in 293T cells, conditioned medium) (mouse). Description: cell binding assay: 293T cells with or without VLDL receptor incubated with Reelin conditioned medium, washed, lysed, Western blot with G10. As for the experimental part: Reelin-VLDL receptor binding assay. 293T cells transfected with or without the VLDL receptor are washed in phosphate buffer saline (PBS) containing divalent cations and distributed into Eppendorf tubes (approximately 10^6 cells/sample). For Reelin binding assays, cells are incubated with conditioned medium containing 20–100 ng of Reelin for 30 min to 2 h at 4° C. or room temperature. Cells are then washed again with PBS and solubilized in […] of TxB buffer (150 mM NaCl, 50 mM Tris-Cl pH7.5, 1% Triton-X, 1 mM EDTA) supplemented with 0.1 mg/ml Aprotinin, with 0.1 mg/m Leupeptin, 20 mM Sodium Fluoride, and 1 mM Sodium Orthovanadate. Cell extracts are clarified by centrifugation at 13,000×g for 10 min at 4° C. and subjected to Western blot analysis to reveal the presence of Reelin retained by the VLDL receptor.
Western blot analysis. Ten µl of cell extract per lane are analyzed by SDS-PAGE on 4–12% minigels (Novex). Proteins are transferred to nitrocellulose membranes and blocked in 3% milk in Tris buffer saline (TBS) for 1 h at room temperature. Proteins bound to the membranes are incubated at 4° C. overnight in antibody diluted in 0.3% milk-TBS supplemented with 0.1% Tween (TBST). Ascites fluids containing the mouse monoclonal G10 antibody (de Bergeyck et al., J. Neurosci. Methods, 82:17–24, 1998) are used at a 1:1000 dilution to detect Reelin. […]
Background: A western blot detects proteins with antibodies after separation by electrophoresis.

B1: human very low density lipoprotein (VLDL) receptor, expressed on transfected 293T cells (receptor)
chain: not shown
On to B1, for which the binding result was “binds”.
